In US20260174875A1 (Novo Nordisk A/S, priority 2023, published 2026):
Numbered stars: 1 amine (or outer) side, 2 acyl side, 3 side chain; on linkers, the order of the positions; unused ones are H or OH. Square brackets hold non-standard residues; d marks the D form. Side chains are listed from the residue outwards. * marks the point of attachment. C20 diacid = O=C(O)CCCCCCCCCCCCCCCCCCC(=O)*; γGlu = O=C(O)[C@H](CCC(=O)[*:2])N[*:1]; Chem. 27 = not defined here; AEEA = NCCOCCOCC(=O)O; Aib = CC(C)(N)C(=O)O

T1: human amylin-3(a) receptor (human, UniProt P30988 25-474; O60896 24-148)
T1 sequence (looked up) 1: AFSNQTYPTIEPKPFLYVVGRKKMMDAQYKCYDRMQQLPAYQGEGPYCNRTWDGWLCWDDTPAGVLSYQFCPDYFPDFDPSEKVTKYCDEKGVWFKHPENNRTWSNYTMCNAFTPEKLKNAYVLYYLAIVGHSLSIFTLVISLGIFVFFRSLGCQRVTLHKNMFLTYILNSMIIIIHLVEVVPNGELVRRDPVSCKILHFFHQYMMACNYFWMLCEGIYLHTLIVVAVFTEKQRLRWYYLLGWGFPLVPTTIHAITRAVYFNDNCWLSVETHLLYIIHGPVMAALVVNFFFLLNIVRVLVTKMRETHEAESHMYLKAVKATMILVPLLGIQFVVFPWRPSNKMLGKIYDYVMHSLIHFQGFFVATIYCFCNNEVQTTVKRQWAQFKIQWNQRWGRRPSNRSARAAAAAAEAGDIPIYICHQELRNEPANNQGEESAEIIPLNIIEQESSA
T1 sequence (looked up) 2: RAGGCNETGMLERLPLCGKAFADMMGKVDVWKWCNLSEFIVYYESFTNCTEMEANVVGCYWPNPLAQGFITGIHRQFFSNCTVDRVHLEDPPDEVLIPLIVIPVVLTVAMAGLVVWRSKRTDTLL

T2: human GIP receptor (human, UniProt P48546 22-466)
T2 sequence (looked up): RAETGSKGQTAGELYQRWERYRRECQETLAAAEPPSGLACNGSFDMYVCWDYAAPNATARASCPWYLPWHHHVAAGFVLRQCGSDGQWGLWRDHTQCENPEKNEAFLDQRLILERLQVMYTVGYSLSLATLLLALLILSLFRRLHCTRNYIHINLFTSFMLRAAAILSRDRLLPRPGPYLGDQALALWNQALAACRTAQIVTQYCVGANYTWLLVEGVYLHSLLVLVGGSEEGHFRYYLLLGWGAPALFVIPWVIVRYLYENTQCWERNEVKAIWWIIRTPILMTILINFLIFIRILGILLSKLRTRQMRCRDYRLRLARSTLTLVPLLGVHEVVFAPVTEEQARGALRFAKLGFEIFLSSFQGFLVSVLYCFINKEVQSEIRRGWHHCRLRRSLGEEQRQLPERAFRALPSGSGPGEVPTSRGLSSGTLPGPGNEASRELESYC


Assays:
[1] = endogenous hormone; cited from earlier work
human GLP-1 receptor [2] = molecular target: T3, human GLP-1 receptor (human, UniProt P43220 24-463); test: cell-based or functional assay
[3] = molecular target: T1, human amylin-3(a) receptor; test: cell-based or functional assay
human GIP receptor [4] = molecular target: T2, human GIP receptor; test: cell-based or functional assay
human GLP-1 receptor [5] = molecular target: T3, human GLP-1 receptor; test: cell-based or functional assay; remark: listed apart in the source
[6] = molecular target: T1, human amylin-3(a) receptor; test: cell-based or functional assay; remark: listed apart in the source
human GIP receptor [7] = molecular target: T2, human GIP receptor; test: cell-based or functional assay; remark: listed apart in the source

hGLP-1R Potency, no HSA, EC50 [pM] (human GLP-1 receptor [2]) | hAMYR3 Potency, no HSA, EC50 [pM] [3] | hGIPR Potency, no HSA, EC50 [pM] (human GIP receptor [4]) | hGLP-1R Potency, 1% HSA, EC50 [pM] (human GLP-1 receptor [5]) | hAMYR3 Potency, 1% HSA, EC50 [pM] [6] | hGIPR Potency, 1% HSA, EC50 [pM] (human GIP receptor [7]) | Molecule | half-life [1]
 |  |  |  |  |  | Amylin (KCNTATCATQRLANFLVHSSNNFGAILSSTNVGSNTY; Islet amyloid polypeptide; UniProt P10997 34-70, looked up) ["a 37-amino acid long polypeptide hormone produced in pancreatic beta (β)-cell from where it is co-secreted with insulin"] | 15 to 20 min
19.4 pM | 7.13 pM | 10.3 pM | 92.9 pM | 551 pM | 38.9 pM | Compound 115 (peptide) peptide: Y[Aib]EGTFTSDYSILLEEQAAREFIEWLLAGGPSSGAGQAPGQAPGASHLSTAQTQRLSAELHK([AEEA-AEEA-γGlu-C20 diacid])LATLPRTETGSGSP-NH2 | 
 | 6.2 pM | 2 pM | 744 pM | 108 pM | 71.4 pM | Compound 183 (reading uncertain) peptide: Y[Aib]EGTFTSDYSK(Chem. 27)LLEEIAAREFIEWLLAGGPSSGAGASELSTAQLGRLSAELHQLATLPRTETGSGSP-NH2 | 
23.3 pM | 10 pM | 4.36 pM | 170 pM | 1350 pM | 25.5 pM | Compound 179 (reading uncertain) peptide: Y[Aib]EGTFTSDYSILLEEIAAREFIEWLLAGGPSSGAGASHLSTAQTQRLSAELHK(Chem. 27)LATEPRTETGSGSP-NH2 | 
26.9 pM | 12.7 pM | 3.18 pM | 81.9 pM | 1210 pM | 9.18 pM | Compound 189 (reading uncertain) peptide: Y[Aib]EGTFTSDYSILLEEIAAREFIEWLLAGGPSSGAGEAPGEAPGASHLSTAQTQRLSAELHK(Chem. 27)LATLPRTETGSGSP-NH2 | 
29.9 pM | 11.2 pM | 3.66 pM | 178 pM | 798 pM | 23.8 pM | Compound 176 (reading uncertain) peptide: Y[Aib]EGTFTSDYSILLEEIAAREFIEWLLAGGPSSGAGASELSTAQTQRLSAELHK(Chem. 27)LATLPRTETGSGSP-NH2 | 
28.8 pM | 8.46 pM | 3.25 pM | 134 pM | 1300 pM | 20.1 pM | Compound 181 (reading uncertain) peptide: Y[Aib]EGTFTSDYSILLEEIAAREFIEWLLAGGPSSEAGASQLSTAQTQRLSAELHK(Chem. 27)LATLPRTETGSGSP-NH2 | 
